The text below walks through data of paper PMC10327126.

For this assay, the target named is GST-NTF2L-F33W (human). The assay is described as follows: SPR. (In SPR one partner is held on a chip, and binding of the other changes the refractive index at the surface.)

For “N_(1–25)-WT peptide (from UniProt P0DTC9 1-25)”, the Kd (usually the constant that tells how readily two partners part at equilibrium) worked out at 1920 nM.
